Results taken from FireProtDB (doi:10.1073/pnas.0804396105).
Several values for one entry are separate records, joined by “and”; a condition that tells them apart may be missing. Equal entries are not always repeated.

B1: Adenosine receptor A2a, P29274 (parent)
chain: MPIMGSSVYITVELAIAVLAILGNVLVCWAVWLNSNLQNVTNYFVVSLAAADIAVGVLAIPFAITISTGFCAACHGCLFIACFVLVLTQSSIFSLLAIAIDRYIAIRIPLRYNGLVTGTRAKGIIAICWVLSFAIGLTPMLGWNNCGQPKEGKNHSQGCGEGQVACLFEDVVPMNYMVYFNFFACVLVPLLLMLGVYLRIFLAARRQLKQMESQPLPGERARSTLQKEVHAAKSLAIIVGLFALCWLPLHIINCFTFFCPDCSHAPLWLMYLAIVLSHTNSVVNPFIYAYRIREFRQTFRKIIRSHVLRQQEPFKAAGTSARVLAAHGSDGEQVSLRLNGHPPGVWANGSAPHPERRPNGYALGLVSGGSAQESQGNTGLPDVELLSHELKGVCPEPPGLDDPLAQDGAGVS

Variants of: B1
Conditions: Homo sapiens; pH 7.4; Thermal; Activity; Tris 50 mM; NaCl 0.4 M; structure 4UHR; whole UniProt chain shown

| Variant | Tm | change of melting temperature, mutant - wild type (higher = more stable) |
| --- | --- | --- |
| T279A N284A | 29 °C | 9 °C |
| A184L A203L | 30 °C | 10 °C |
| A54L K122A | 35 °C and 40 °C | 4 °C and 8 °C |
| A54L K122A L235A | 47 °C and 48 °C | 16 °C |
| A54L H75A V239A | 37 °C | 6 °C |
| S223A T224A Q226A K227A | 24 °C | 4 °C |
| A54L V239A | 40 °C and 42 °C | 9 °C and 10 °C |
| A54L H75A T88A V239A | 40 °C and 44 °C | 9 °C and 12 °C |
| P260A L267A | 31 °C and 30 °C | – |
| G114A G118A | 31 °C | 11 °C |
| L167A A184L R199A H230A | 31 °C | 11 °C |
| A54L A204L | 33 °C | 2 °C |
| A203L A204L | 40 °C and 42 °C | 9 °C and 10 °C |
| L167A A184L L272A | 27 °C | 7 °C |
| A231L L235A V239A | 38 °C | 7 °C |
| A54L T88A | 39 °C | 8 °C |
| A54L L235A | 42 °C and 45 °C | 11 °C and 13 °C |
| A54L V57A | 31 °C | 0 °C |
| Q210A E219A | 31 °C | 11 °C |
| A54L T88A A204L V239A | – | 10 °C and 15 °C |
| A54L T88A V239A | 46 °C | 14 °C |
| K122A L235A | 37 °C | 6 °C |
| L167A A184L R199A L241A L272A | 29 °C | 9 °C |
